# Experimental data: the supplement of paper PMC5998384
# Assays:
# [1] = tested on: HeLa Kyoto; test: melting temperature (median over replicates), in situ; higher = more thermally stable
# [2] = tested on: HeLa Kyoto; test: thermal stability score vs G1/S (z-score of summed log2 fold changes over temperatures); higher = more thermally stable than in G1/S
# [3] = tested on: HeLa Kyoto; test: solubility in G1/S (NP-40 vs SDS abundance) (log2 ratio); higher = more soluble; settings: cell cycle stage: G1/S
# [4] = tested on: HeLa Kyoto; test: solubility change mitosis vs G1/S (difference of NP-40 vs SDS log2 ratios) (log2 ratio difference); higher = more soluble in mitosis
# [5] = cell cycle stage: early G1 (4.5 h after nocodazole release)
# 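For melting temperature (median over replicates), in situ in this document: HeLa Kyoto cells synchronized by double thymidine or nocodazole block, proteins quantified by TMT10plex mass spectrometry, three independent biological replicates.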
# 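For solubility change mitosis vs G1/S (difference of NP-40 vs SDS log2 ratios) in this document: synchronized HeLa Kyoto cells (double thymidine block for G1/S, nocodazole release for mitosis), protein amounts in NP-40 versus SDS lysates quantified by mass spectrometry, three biological replicates.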
# 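For solubility in G1/S (NP-40 vs SDS abundance) in this document: HeLa Kyoto cells arrested at G1/S by double thymidine block, proteins quantified by TMT10plex mass spectrometry in mild NP-40 versus SDS extracts, three biological replicates.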
# 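For thermal stability score vs G1/S (z-score of summed log2 fold changes over temperatures) in this document: synchronized HeLa Kyoto cells, proteins quantified by TMT10plex mass spectrometry, three biological replicates, mitosis taken 0.5 h after nocodazole release, G1/S directly after double thymidine block.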
Sequence,melting temperature ([1]; cell cycle stage: G1/S) [°C],melting temperature ([1]; cell cycle stage: mitosis) [°C],"thermal stability score [2, 5]",thermal stability score ([2]; cell cycle stage: mitosis),solubility in G1/S (log2) [3],solubility change mitosis (log2) [4]
MAPVHGDDSLSDSGSFVSSRARREKKSKKGRQEALERLKKAKAGEKYKYEVEDFTGVYEEVDEEQYSKLVQARQDDDWIVDDDGIGYVEDGREIFDDDLEDDALDADEKGKDGKARNKDKRNVKKLAVTKPNNIKSMFIACAGKKTADKAVDLSKDGLLGDILQDLNTETPQITPPPVMILKKKRSIGASPNPFSVHTATAVPSGKIASPVSRKEPPLTPVPLKRAEFAGDDVQVESTEEEQESGAMEFEDGDFDEPMEVEEVDLEPMAAKAWDKESEPAEEVKQEADSGKGTVSYLGSFLPDVSCWDIDQEGDSSFSVQEVQVDSSHLPLVKGADEEQVFHFYWLDAYEDQYNQPGVVFLFGKVWIESAETHVSCCVMVKNIERTLYFLPREMKIDLNTGKETGTPISMKDVYEEFDEKIATKYKIMKFKSKPVEKNYAFEIPDVPEKSEYLEVKYSAEMPQLPQDLKGETFSHVFGTNTSSLELFLMNRKIKGPCWLEVKSPQLLNQPVSWCKVEAMALKPDLVNVIKDVSPPPLVVMAFSMKTMQNAKNHQNEIIAMAALVHHSFALDKAAPKPPFQSHFCVVSKPKDCIFPYAFKEVIEKKNVKVEVAATERTLLGFFLAKVHKIDPDIIVGHNIYGFELEVLLQRINVCKAPHWSKIGRLKRSNMPKLGGRSGFGERNATCGRMICDVEISAKELIRCKSYHLSELVQQILKTERVVIPMENIQNMYSESSQLLYLLEHTWKDAKFILQIMCELNVLPLALQITNIAGNIMSRTLMGGRSERNEFLLLHAFYENNYIVPDKQIFRKPQQKLGDEDEEIDGDTNKYKKGRKKAAYAGGLVLDPKVGFYDKFILLLDFNSLYPSIIQEFNICFTTVQRVASEAQKVTEDGEQEQIPELPDPSLEMGILPREIRKLVERRKQVKQLMKQQDLNPDLILQYDIRQKALKLTANSMYGCLGFSYSRFYAKPLAALVTYKGREILMHTKEMVQKMNLEVIYGDTDSIMINTNSTNLEEVFKLGNKVKSEVNKLYKLLEIDIDGVFKSLLLLKKKKYAALVVEPTSDGNYVTKQELKGLDIVRRDWCDLAKDTGNFVIGQILSDQSRDTIVENIQKRLIEIGENVLNGSVPVSQFEINKALTKDPQDYPDKKSLPHVHVALWINSQGGRKVKAGDTVSYVICQDGSNLTASQRAYAPEQLQKQDNLTIDTQYYLAQQIHPVVARICEPIDGIDAVLIATWLGLDPTQFRVHHYHKDEENDALLGGPAQLTDEEKYRDCERFKCPCPTCGTENIYDNVFDGSGTDMEPSLYRCSNIDCKASPLTFTVQLSNKLIMDIRRFIKKYYDGWLICEEPTCRNRTRHLPLQFSRTGPLCPACMKATLQPEYSDKSLYTQLCFYRYIFDAECALEKLTTDHEKDKLKKQFFTPKVLQDYRKLKNTAEQFLSRSGYSEVNLSKLFAGCAVKS [POLA1],49,50.1,1.03,3.37,-0.19,-0.107
MAPWGKRLAGVRGVLLDISGVLYDSGAGGGTAIAGSVEAVARLKRSRLKVRFCTNESQKSRAELVGQLQRLGFDISEQEVTAPAPAACQILKEQGLRPYLLIHDGVRSEFDQIDTSNPNCVVIADAGESFSYQNMNNAFQVLMELEKPVLISLGKGRYYKETSGLMLDVGPYMKALEYACGIKAEVVGKPSPEFFKSALQAIGVEAHQAVMIGDDIVGDVGGAQRCGMRALQVRTGKFRPSDEHHPEVKADGYVDNLAEAVDLLLQHADK [LHPP],56.5,55.5,-1.67,-2.15,0.392,0.0085
MAQFVRNLVEKTPALVNAAVTYSKPRLATFWYYAKVELVPPTPAEIPRAIQSLKKIVNSAQTGSFKQLTVKEAVLNGLVATEVLMWFYVGEIIGKRGIIGYDV [ATP5L],55,52.8,-1.18,-2.02,-0.573,0.0203
MAQKKYLQAKLTQFLREDRIQLWKPPYTDENKKVGLALKDLAKQYSDRLECCENEVEKVIEEIRCKAIERGTGNDNYRTTGIATIEVFLPPRLKKDRKNLLETRLHITGRELRSKIAETFGLQENYIKIVINKKQLQLGKTLEEQGVAHNVKAMVLELKQSEEDARKNFQLEEEEQNEAKLKEKQIQRTKRGLEILAKRAAETVVDPEMTPYLDIANQTGRSIRIPPSERKALMLAMGYHEKGRAFLKRKEYGIALPCLLDADKYFCECCRELLDTVDNYAVLQLDIVWCYFRLEQLECLDDAEKKLNLAQKCFKNCYGENHQRLVHIKGNCGKEKVLFLRLYLLQGIRNYHSGNDVEAYEYLNKARQLFKELYIDPSKVDNLLQLGFTAQEARLGLRACDGNVDHAATHITNRREELAQIRKEEKEKKRRRLENIRFLKGMGYSTHAAQQVLHAASGNLDEALKILLSNPQMWWLNDSNPETDNRQESPSQENIDRLVYMGFDALVAEAALRVFRGNVQLAAQTLAHNGGSLPPELPLSPEDSLSPPATSPSDSAGTSSASTDEDMETEAVNEILEDIPEHEEDYLDSTLEDEEIIIAEYLSYVENRKSATKKN [NUB1],47.9,50.3,1.06,1.85,-0.169,-0.203
MAQPGPASQPDVSLQQRVAELEKINAEFLRAQQQLEQEFNQKRAKFKELYLAKEEDLKRQNAVLQAAQDDLGHLRTQLWEAQAEMENIKAIATVSENTKQEAIDEVKRQWREEVASLQAVMKETVRDYEHQFHLRLEQERTQWAQYRESAEREIADLRRRLSEGQEEENLENEMKKAQEDAEKLRSVVMPMEKEIAALKDKLTEAEDKIKELEASKVKELNHYLEAEKSCRTDLEMYVAVLNTQKSVLQEDAEKLRKELHEVCHLLEQERQQHNQLKHTWQKANDQFLESQRLLMRDMQRMEIVLTSEQLRQVEELKKKDQEDDEQQRLNKRKDHKKADVEEEIKIPVVCALTQEESSAQLSNEEEHLDSTRGSVHSLDAGLLLPSGDPFSKSDNDMFKDGLRRAQSTDSLGTSGSLQSKALGYNYKAKSAGNLDESDFGPLVGADSVSENFDTASLGSLQMPSGFMLTKDQERAIKAMTPEQEETASLLSSVTQGMESAYVSPSGYRLVSETEWNLLQKEVHNAGNKLGRRCDMCSNYEKQLQGIQIQEAETRDQVKKLQLMLRQANDQLEKTMKDKQELEDFIKQSSEDSSHQISALVLRAQASEILLEELQQGLSQAKRDVQEQMAVLMQSREQVSEELVRLQKDNDSLQGKHSLHVSLQQAEDFILPDTTEALRELVLKYREDIINVRTAADHVEEKLKAEILFLKEQIQAEQCLKENLEETLQLEIENCKEEIASISSLKAELERIKVEKGQLESTLREKSQQLESLQEIKISLEEQLKKETAAKATVEQLMFEEKNKAQRLQTELDVSEQVQRDFVKLSQTLQVQLERIRQADSLERIRAILNDTKLTDINQLPET [RABEP1],51,50.4,-1,-0.882,0.412,-0.0841
MAQPPPDVEGDDCLPAYRHLFCPDLLRDKVAFITGGGSGIGFRIAEIFMRHGCHTVIASRSLPRVLTAARKLAGATGRRCLPLSMDVRAPPAVMAAVDQALKEFGRIDILINCAAGNFLCPAGALSFNAFKTVMDIDTSGTFNVSRVLYEKFFRDHGGVIVNITATLGNRGQALQVHAGSAKAAVDAMTRHLAVEWGPQNIRVNSLAPGPISGTEGLRRLGGPQASLSTKVTASPLQRLGNKTEIAHSVLYLASPLASYVTGAVLVADGGAWLTFPNGVKGLPDFASFSAKL [DECR2],51.9,52.1,1.32,0.657,0.0495,-0.232
MAQRKNAKSSGNSSSSGSGSGSTSAGSSSPGARRETKHGGHKNGRKGGLSGTSFFTWFMVIALLGVWTSVAVVWFDLVDYEEVLGKLGIYDADGDGDFDVDDAKVLLGLKERSTSEPAVPPEEAEPHTEPEEQVPVEAEPQNIEDEAKEQIQSLLHEMVHAEHVEGEDLQQEDGPTGEPQQEDDEFLMATDVDDRFETLEPEVSHEETEHSYHVEETVSQDCNQDMEEMMSEQENPDSSEPVVEDERLHHDTDDVTYQVYEEQAVYEPLENEGIEITEVTAPPEDNPVEDSQVIVEEVSIFPVEEQQEVPPETNRKTDDPEQKAKVKKKKPKLLNKFDKTIKAELDAAEKLRKRGKIEEAVNAFKELVRKYPQSPRARYGKAQCEDDLAEKRRSNEVLRGAIETYQEVASLPDVPADLLKLSLKRRSDRQQFLGHMRGSLLTLQRLVQLFPNDTSLKNDLGVGYLLIGDNDNAKKVYEEVLSVTPNDGFAKVHYGFILKAQNKIAESIPYLKEGIESGDPGTDDGRFYFHLGDAMQRVGNKEAYKWYELGHKRGHFASVWQRSLYNVNGLKAQPWWTPKETGYTELVKSLERNWKLIRDEGLAVMDKAKGLFLPEDENLREKGDWSQFTLWQQGRRNENACKGAPKTCTLLEKFPETTGCRRGQIKYSIMHPGTHVWPHTGPTNCRLRMHLGLVIPKEGCKIRCANETKTWEEGKVLIFDDSFEHEVWQDASSFRLIFIVDVWHPELTPQQRRSLPAI [ASPH],54.2,53.5,1.63,2.03,-0.00862,0.0282
